Measured values as given in publication PMC10816697.

Columns and labels:
[1] = target: Skeletal muscle actin (rabbit) (UniProt P68135)
[2] = target: Arp2/3 complex purified from sheep brain (sheep)
[3] = target: Arp2/3 complex purified from sheep brain (sheep); test: TIRF microscopy of single actin filaments in microfluidics; branch dissociation rate against GMF concentration (up to 1500 nM), 0.3 μM G-actin, branches aged 30 min (ADP-Arp2/3 complex), average 1 pN pulling force; Michaelis-Menten fit, rapid equilibrium between GMF and the branch junction assumed; apparent dissociation constant; 25°C, pH 7.0, 50 mM KCl

Row | branch renucleation ratio of branches made with budding yeast Arp2/3 complex on mammalian actin [1] | branch renucleation ratio against GMF concentration (0.3 and 0.6 μM actin): GMF concentration of the half-maximum effect; with 25 nM GMF and 0.6 μM actin the ratio was reduced more than threefold [2] | Kd [3] | Molecule
1 | < 10% | – | – | Arp2/3 complex from Saccharomyces cerevisiae (from UniProt P32381 1-391; P47117 1-449)
2 | – | < 25 nM | 260 nM | drosophila GMF (glia maturation factor) (natural protein) MSDNQICDISNEVLEELKKFRFSKSKNNAALILKVDREKQTVVLDEFIDDISVDELQDTLPGHQPRYVIYTYKMVHDDQRISYPMCFIFYTPRDSQIELQMMYACTKSALQREVDLTRVYEIRELDELTEEWLKAKLK
